Measurements taken from US20250250308A1, “METHODS AND COMPOSITIONS WITH ANTIFUNGAL ACTIVITY” (priority 2022, published 2025).

Columns and labels:
[1] = system: C. neoformans; assay: Survival of C. elegans infected with C. neoformans; format: in vivo; conditions: 1 nM peptide
Protocol: FIGS. 6A-6D: EntV peptides have activity against many fungal species and strains. Survival over time of C. elegans infected with C. auris, (FIG. 6A), C. neoformans, (FIG. 6B), and C. albicans, (FIG. 6C), paired clinical isolates before (AzS: fluconazole-susceptability) and after gaining fluconazole resistance (AzR), (FIG. 6D). Peptides were added at 1 nM and fluconazole at 4 ug/ml. Statistical differences in survival were compared to animals to the DMSO vehicle control by Mantel-Cox log rank analysis. An n of 60 was used and one representative trial is shown. Exact p values from top to bottom: (FIG. 6A) <0.0001, <0.0001, (FIG. 6B) <0.0001, <0.0001, (FIG. 6C) 0.0013, 0.0004, 0.0035, (FIG. 6D) 0.0050, 0.0040, 0.5539.
EntV peptides have activity against other fungal species and strains. […] Paired clinical isolates of C. albicans, in which fluconazole-resistance had been gained following in-patient evolution were tested and it was determined that animals infected with both the original strain as well as the fluconazole-resistant descendent were protected by EntV ([…]).
Killing of C. elegans by C. albicans. […] Plates were incubated at 25° C., and worm death was scored daily. Kaplan-Meier survival curves were generated and analyzed as described in the quantification and statistical analysis section.

[2] = system: C. albicans; assay: Growth of C. albicans in shaking cultures; format: cell-based
Protocol: These shorter peptides are no longer bacteriocins, having separated the antifungal and antibacterial activities. Furthermore, despite its robust protection against infection, EntV is not toxic to C. albicans. Growth of C. albicans was unaffected when EntV was added to shaking cultures in concentrations as high as 30 μM

[3] = system: human cells; conditions: cited from earlier work
[4] = system: C. albicans; assay: Killing of C. elegans by C. albicans (survival of infected nematodes); format: in vivo; conditions: original strain and fluconazole-resistant descendent; 1 nM
[5] = system: mouse cells; conditions: cited from earlier work

VAGQLALWAVQC [12aa]
Survival of C. elegans infected with C. neoformans [1]: protected C. neoformans infected worms from death

B1: EntV: 68 amino acid active C-terminal form of the E. faecalis bacteriocin EntV (SEQ ID NO: 14) (protein, listed as Enterococcus faecalis)
chain: LGSCVANKIKDEFFAMISISAIVKAAQKKAWKELAVTVLRFAKANGLKTNAIIVAGQLALWAVQCGLS
Highest concentration at which growth of C. albicans was unaffected [2]: ≥ 30 µM
Toxicity to human cells [3]: no toxicity
Protection of C. elegans infected with paired C. albicans clinical isolates [4]: protected
Toxicity to mouse cells [5]: no toxicity
